Reference: patent US20250230251A1 (Bristol-Myers Squibb, published 2025)
Numbering of substitutions follows the chain as printed. Values belong to the binder of their own block, whether it stands above or below them.

Assays:
[1] = target: T1, cyIL-18Rβ-HisAvi (cynomolgus monkey); experiment: SPR T200, mAb on anti-hFc, 37C, pH 7.4
T1 construct: Soluble analyte in SPR; also called cyno IL-18Rβ; cynomolgus monkey IL-18Rβ
T1 chain: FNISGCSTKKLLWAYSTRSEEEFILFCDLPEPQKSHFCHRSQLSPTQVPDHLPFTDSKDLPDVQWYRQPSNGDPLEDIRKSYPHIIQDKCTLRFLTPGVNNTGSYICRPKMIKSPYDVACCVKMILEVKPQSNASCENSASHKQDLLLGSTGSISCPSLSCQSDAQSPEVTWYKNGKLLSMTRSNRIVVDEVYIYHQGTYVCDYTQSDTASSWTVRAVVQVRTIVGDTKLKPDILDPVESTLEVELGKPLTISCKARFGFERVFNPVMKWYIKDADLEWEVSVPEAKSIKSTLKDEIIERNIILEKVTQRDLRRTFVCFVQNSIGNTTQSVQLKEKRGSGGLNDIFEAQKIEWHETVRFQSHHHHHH

[2] = target: T2, huIL-18Rβ-HisAvi (human, UniProt O95256 20-356, biotinylated in the Octet blocking assay); experiment: SPR T200, mAb on anti-hFc, 37C, pH 7.4
T2 construct: Soluble analyte in all SPR runs; captured on streptavidin sensors in the Octet assay; also called human IL-18Rβ; human IL-18Rβ-Avi-His
T2 sequence: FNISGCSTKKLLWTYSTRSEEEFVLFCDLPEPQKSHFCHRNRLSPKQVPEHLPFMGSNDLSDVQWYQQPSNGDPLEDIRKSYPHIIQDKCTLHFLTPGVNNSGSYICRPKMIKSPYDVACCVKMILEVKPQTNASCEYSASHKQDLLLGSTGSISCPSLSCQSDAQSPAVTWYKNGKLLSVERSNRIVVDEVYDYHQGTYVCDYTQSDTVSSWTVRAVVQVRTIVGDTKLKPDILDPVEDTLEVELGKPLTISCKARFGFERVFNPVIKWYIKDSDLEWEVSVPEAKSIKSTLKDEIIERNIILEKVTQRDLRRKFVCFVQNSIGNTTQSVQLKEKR

[3] = target: T1, cyIL-18Rβ-HisAvi; experiment: SPR T200, mAb on anti-hFc, 37C, pH 6
[4] = target: T2, huIL-18Rβ-HisAvi; experiment: SPR T200, mAb on anti-hFc, 37C, pH 6
[5] = target: T3, human IL-18Rβ on cells (human, UniProt O95256 20-599); experiment: cell-based or functional assay
T3 sequence: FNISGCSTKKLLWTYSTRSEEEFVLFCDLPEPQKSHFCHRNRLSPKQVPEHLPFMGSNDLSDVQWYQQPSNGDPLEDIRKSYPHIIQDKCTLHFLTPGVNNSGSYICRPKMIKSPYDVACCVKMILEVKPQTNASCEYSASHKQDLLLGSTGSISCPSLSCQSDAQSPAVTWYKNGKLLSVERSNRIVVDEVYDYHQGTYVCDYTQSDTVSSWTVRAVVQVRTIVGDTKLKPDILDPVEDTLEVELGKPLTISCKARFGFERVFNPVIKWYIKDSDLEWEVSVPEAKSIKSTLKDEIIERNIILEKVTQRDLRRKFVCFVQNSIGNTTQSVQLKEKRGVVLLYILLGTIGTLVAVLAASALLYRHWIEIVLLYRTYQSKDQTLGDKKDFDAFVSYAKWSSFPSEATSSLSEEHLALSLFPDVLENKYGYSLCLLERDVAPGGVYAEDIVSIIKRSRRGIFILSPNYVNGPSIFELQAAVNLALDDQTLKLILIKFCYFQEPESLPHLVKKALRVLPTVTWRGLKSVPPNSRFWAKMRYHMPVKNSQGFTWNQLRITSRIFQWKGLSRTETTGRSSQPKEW

[6] = target: T1, cyIL-18Rβ-HisAvi; experiment: SPR T200, mAb on anti-hFc, 37C, pH 6
[7] = target: T2, huIL-18Rβ-HisAvi; experiment: SPR T200, mAb on anti-hFc, 37C, pH 6; remark: listed apart in the source
[8] = target: T1, cyIL-18Rβ-HisAvi; experiment: SPR T200, mAb on anti-hFc, 37C, pH 7.4
[9] = target: T2, huIL-18Rβ-HisAvi; experiment: SPR T200, mAb on anti-hFc, 37C, pH 7.4; remark: listed apart in the source
[10] = target: T3, human IL-18Rβ on cells; experiment: cell-based or functional assay; remark: listed apart in the source

B1: P21-V2 (antibody, human IgG1, kappa, name in Kabat numbering)
heavy: QVQLQQSGPGLVKPSETLSLTCTVSGGSISNYYWTWIRQPPGKGLEWIGYISDSGSTNYNPSLKSRVTISVDTSKNQFSLKLSSVTAADTAVYYCARETIVVRGFYFYVMDVWGQGTTVTVSSASTKGPSVFPLAPSSKSTSGGTAALGCLVKDYFPEPVTVSWNSGALTSGVHTFPAVLQSSGLYSLSSVVTVPSSSLGTQTYICNVNHKPSNTKVDKRVEPKSCDKTHTCPPCPAPEAEGAPSVFLFPPKPKDTLMISRTPEVTCVVVDVSHEDPEVKFNWYVDGVEVHNAKTKPREEQYNSTYRVVSVLTVLHQDWLNGKEYKCKVSNKALPAPIEKTISKAKGQPREPQVYTLPPSREEMTKNQVSLTCLVKGFYPSDIAVEWESNGQPENNYKTTPPVLDSDGSFFLYSKLTVDKSRWQQGNVFSCSVMHEALHNHYTQKSLSLSPG
light: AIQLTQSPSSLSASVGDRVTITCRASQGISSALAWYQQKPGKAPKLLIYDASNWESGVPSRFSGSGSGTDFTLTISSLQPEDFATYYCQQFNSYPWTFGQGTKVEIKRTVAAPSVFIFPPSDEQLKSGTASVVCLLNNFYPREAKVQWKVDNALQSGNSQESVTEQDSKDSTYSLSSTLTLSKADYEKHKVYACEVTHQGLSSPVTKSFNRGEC
notes: built from the chains of the parent P21 with the printed mutation
Kd [1]: 22 nM | koff [1]: 0.0032 s⁻¹ | kon [1]: 150000 M⁻¹ s⁻¹ | Kd [2]: 2.3 nM | koff [2]: 0.00053 s⁻¹ | kon [2]: 230000 M⁻¹ s⁻¹ | Kd [3]: 14 nM | koff [3]: 0.0022 s⁻¹ | kon [3]: 160000 M⁻¹ s⁻¹ | Kd [4]: 0.7 nM | koff [4]: 0.00043 s⁻¹ | kon [4]: 610000 M⁻¹ s⁻¹ | IC50, LPS+IL-12 dependent IFNg production, human whole blood [5]: 1.65 nM

B2: P21-V3 (antibody, human IgG1, kappa, name in Kabat numbering)
heavy: B1 heavy with Q6E
light: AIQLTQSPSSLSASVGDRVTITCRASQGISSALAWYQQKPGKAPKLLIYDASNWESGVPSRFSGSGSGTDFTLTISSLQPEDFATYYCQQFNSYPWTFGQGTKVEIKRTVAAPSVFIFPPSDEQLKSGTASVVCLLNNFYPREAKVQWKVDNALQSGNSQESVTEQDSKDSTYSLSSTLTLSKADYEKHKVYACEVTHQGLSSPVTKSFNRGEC
notes: built from the chains of the parent P21 with the printed mutations
Kd [1]: 17 nM | koff [1]: 0.0027 s⁻¹ | kon [1]: 160000 M⁻¹ s⁻¹ | Kd [2]: 2.3 nM | koff [2]: 0.00054 s⁻¹ | kon [2]: 240000 M⁻¹ s⁻¹ | Kd [3]: 8.4 nM | koff [3]: 0.0016 s⁻¹ | kon [3]: 190000 M⁻¹ s⁻¹ | Kd [4]: 0.66 nM | koff [4]: 0.00039 s⁻¹ | kon [4]: 590000 M⁻¹ s⁻¹ | IC50, LPS+IL-12 dependent IFNg production, human whole blood [5]: 1.63 nM | Kd [6]: 8.4 nM | koff [6]: 0.0016 s⁻¹ | kon [6]: 190000 M⁻¹ s⁻¹ | Kd [7]: 0.66 nM | koff [7]: 0.00039 s⁻¹ | kon [7]: 590000 M⁻¹ s⁻¹ | Kd [8]: 17 nM | koff [8]: 0.0027 s⁻¹ | kon [8]: 160000 M⁻¹ s⁻¹ | Kd [9]: 2.3 nM | koff [9]: 0.00054 s⁻¹ | kon [9]: 240000 M⁻¹ s⁻¹

B3: P8-V2 (antibody, human IgG1, kappa, name in Kabat numbering)
heavy: QVQLVQSGAEVKKPGASVKVSCKASGYTFTSYYMHWVRQAPGQGLEWMGIINPRGGYTTYAQKFQGRVTMTRDTSTSTVYMELSSLRSEDTAVYYCAKEGRVSPTDYYGMDVWGQGTTVTVSSASTKGPSVFPLAPSSKSTSGGTAALGCLVKDYFPEPVTVSWNSGALTSGVHTFPAVLQSSGLYSLSSVVTVPSSSLGTQTYICNVNHKPSNTKVDKRVEPKSCDKTHTCPPCPAPEAEGAPSVFLFPPKPKDTLMISRTPEVTCVVVDVSHEDPEVKFNWYVDGVEVHNAKTKPREEQYNSTYRVVSVLTVLHQDWLNGKEYKCKVSNKALPAPIEKTISKAKGQPREPQVYTLPPSREEMTKNQVSLTCLVKGFYPSDIAVEWESNGQPENNYKTTPPVLDSDGSFFLYSKLTVDKSRWQQGNVFSCSVMHEALHNHYTQKSLSLSPG
light: not shown
notes: built from the chains of the parent P8 with the printed mutations
Kd [2]: 0.73 nM | koff [2]: 0.00049 s⁻¹ | kon [2]: 680000 M⁻¹ s⁻¹ | Kd [4]: 0.18 nM | koff [4]: 0.00028 s⁻¹ | kon [4]: 1.6e+06 M⁻¹ s⁻¹ | IC50, LPS+IL-12 dependent IFNg production, human whole blood [5]: 0.87 nM

B5: P20-V2 (antibody, human IgG1, kappa, V domains shown)
VH: QVQLQESGPGLVKPSETLSLTCTVSGGSINNYYWSWIRQPPGKGLEWIGYIFYSGTTNYNPSLKSRVTISVDTSKNQFSLKLSSVTAADTAVYYCARDVGIAARNSYYYVMDVWGQGTTVTVSS
VL: AIQLTQSPSSLSASVGDRVTITCRASQGISSALAWYQQKPGKAPKFLIYEGSSLESGVPSRFSGSGSGTDFTLTISSLQPEDFATYYCQQFNSYPITFGQGTRLEIKR
notes: Variant of P20
Kd [6]: 1.4 nM | koff [6]: 0.00023 s⁻¹ | kon [6]: 160000 M⁻¹ s⁻¹ | Kd [7]: 0.29 nM | koff [7]: 0.00013 s⁻¹ | kon [7]: 440000 M⁻¹ s⁻¹ | Average IC50, LPS+IL-12 dependent IFNg production, human whole blood [10]: 0.37 nM | Kd [8]: 0.92 nM | koff [8]: 0.00016 s⁻¹ | kon [8]: 180000 M⁻¹ s⁻¹ | Kd [9]: 0.24 nM | koff [9]: 8.9e-05 s⁻¹ | kon [9]: 360000 M⁻¹ s⁻¹

B6: P20-V3 (antibody, human IgG1, kappa, V domains shown)
VH: B5 VH
VL: B5 VL with E50G, G51A
notes: Variant of P20
Kd [6]: 2.4 nM | koff [6]: 0.00042 s⁻¹ | kon [6]: 180000 M⁻¹ s⁻¹ | Kd [7]: 0.36 nM | koff [7]: 0.00014 s⁻¹ | kon [7]: 390000 M⁻¹ s⁻¹ | Average IC50, LPS+IL-12 dependent IFNg production, human whole blood [10]: 1.52 nM | Kd [8]: 1.5 nM | koff [8]: 0.0003 s⁻¹ | kon [8]: 200000 M⁻¹ s⁻¹ | Kd [9]: 0.72 nM | koff [9]: 0.00019 s⁻¹ | kon [9]: 270000 M⁻¹ s⁻¹

Further lines, results first:

Kd [2]: 0.8 nM | koff [2]: 0.00047 s⁻¹ | kon [2]: 580000 M⁻¹ s⁻¹ | Kd [4]: 0.22 nM | koff [4]: 0.00028 s⁻¹ | kon [4]: 1.3e+06 M⁻¹ s⁻¹ | IC50, LPS+IL-12 dependent IFNg production, human whole blood [5]: 1.09 nM
B4: P8-V1 (antibody, human IgG1, kappa, V domains shown)
VH: QVQLVQSGAEVKKPGASVKVSCKASGYTFTSYYMHWVRQAPGQGLEWMGIINPRGGYTTYAQKFQGRVTMTRDTSTSTVYMELSSLRSEDTAVYYCAKEGRVSPTDYYGMDVWGQGTTVTVSS
VL: not shown
notes: Variant of P8

Kd [1]: 2.9 nM | koff [1]: 0.00032 s⁻¹ | kon [1]: 110000 M⁻¹ s⁻¹ | Kd [2]: 1 nM | koff [2]: 0.00022 s⁻¹ | kon [2]: 210000 M⁻¹ s⁻¹ | Kd [3]: 0.61 nM | koff [3]: 0.00015 s⁻¹ | kon [3]: 250000 M⁻¹ s⁻¹ | Kd [4]: 0.13 nM | koff [4]: 6.8e-05 s⁻¹ | kon [4]: 520000 M⁻¹ s⁻¹ | IC50, LPS+IL-12 dependent IFNg production, human whole blood [5]: 0.85 nM | Kd [6]: 0.61 nM | koff [6]: 0.00015 s⁻¹ | kon [6]: 250000 M⁻¹ s⁻¹ | Kd [7]: 0.13 nM | koff [7]: 6.8e-05 s⁻¹ | kon [7]: 520000 M⁻¹ s⁻¹ | Kd [8]: 2.9 nM | koff [8]: 0.00032 s⁻¹ | kon [8]: 110000 M⁻¹ s⁻¹ | Kd [9]: 1 nM | koff [9]: 0.00022 s⁻¹ | kon [9]: 210000 M⁻¹ s⁻¹
B7: P20-V6 (antibody, human IgG1, kappa, name in Kabat numbering)
heavy: QVQLQESGPGLVKPSETLSLTCTVSGGSINNYYWSWIRQPPGKGLEWIGYIFYSGTTNYNPSLKSRVTISVDTSKNQFSLKLSSVTAADTAVYYCARDVGIAARNSYYYVMDVWGQGTTVTVSSASTKGPSVFPLAPSSKSTSGGTAALGCLVKDYFPEPVTVSWNSGALTSGVHTFPAVLQSSGLYSLSSVVTVPSSSLGTQTYICNVNHKPSNTKVDKRVEPKSCDKTHTCPPCPAPEAEGAPSVFLFPPKPKDTLMISRTPEVTCVVVDVSHEDPEVKFNWYVDGVEVHNAKTKPREEQYNSTYRVVSVLTVLHQDWLNGKEYKCKVSNKALPAPIEKTISKAKGQPREPQVYTLPPSREEMTKNQVSLTCLVKGFYPSDIAVEWESNGQPENNYKTTPPVLDSDGSFFLYSKLTVDKSRWQQGNVFSCSVMHEALHNHYTQKSLSLSPG
light: AIQLTQSPSSLSASVGDRVTITCRASQGISSALAWYQQKPGKAPKFLIYDASSLESGVPSRFSGSGSGTDFTLTISSLQPEDFATYYCQQFNSYPITFGQGTRLEIKRTVAAPSVFIFPPSDEQLKSGTASVVCLLNNFYPREAKVQWKVDNALQSGNSQESVTEQDSKDSTYSLSSTLTLSKADYEKHKVYACEVTHQGLSSPVTKSFNRGEC
notes: built from the chains of the parent P20 with the printed mutation
